B1: NI-308.46E9 (antibody, V domains shown)
VH: QVQLQESGPGLVKPSETLSLTCTVSGASISGSTYYWGWIRQPPGKGLEYIGRIYYSGSTYYNPSLKSRATISVDTSKNQLSLTLSSVTAADTAVYYCVRPFYAGSGNSPFDYWGQGTLVTVSS
VL: CEIVLTQSPATVSVSPGERATLSCRASQSVSTNLAWYQQKPGQPPRLLIYGASTRATGIPARFSGSGSGAEFTLTISSLQSEDFVVYYCQQYNNWPPAFGGGTKVEIK
notes: Recombinant complete human IgG1, kappa
B2: NI-308.5G2 (antibody, V domains shown)
VH: EVQLVQSGADLRNPGASVTVSCTASGYHFADNAINWLRQAPGQRLEWMGWINIYSGNTKYSQNFQGRVTFTRNTSASTAFMHLRSLRSEDTAVYFCARDPDSSGYYLPYFDYWGQGTLVTVSS
VL: DIQLTQSPDSLTLSLGERATINCKSSQSVFYNSNNKNYLAWYQQKPGQPPKLLMYWASTRESGVTDRFSGSGSGTDFTLTITNLQAEDVAVYYCQQFYSSPLTFGGGTKVEIK
notes: as for B1
B3: NI-308.28G1 (antibody, V domains shown)
VH: QVQLQESGPRLVKPSETLSLTCTVAGGSVNSYYWTWIQQSPGKGLEWLGRIYIAGRTNYNPSLTSRIALSVDTSRNQLSLKLTSVTAADTAIYYCARWGAESGDYYYGVDVWGPGTLVTVSS
VL: EIVMTQSPLSLPVTPGEPASISCKSSEGLLHSNGYTYLDWYLQKPGQAPQLLIFLASNRAAGVPDRFSGSGSGTDFTLKISRVEAEDVGVYYCMQAIQSPWTFGPGTKVEIK
notes: as for B1
B4: NI-308.24E11 (antibody, V domains shown)
VH: QVQLQESGPGLVKPSETLSLTCTVSTTSLRSYFWSWIRQPPGKGLEWIGYVYYSGSTIYNPSLKNRVTISIDTSKNQFSLNLRSVTAADTAMYFCARGVPAETDARDFPPYYFDHWGQGTLVTVSS
VL: CDIQLTQSPSSLSASVGNRITFTCQASQDIRYYLNWYQQKPGKAPKLLIYDVSNLDTGVPPRFSGSGSGTNFTFTISSLQPEDIAVYYCQQYEGLPVTFGGGTKVEIK
notes: as for B1
B5: NI-308.4M1 (antibody, V domains shown)
VH: EVQLVETGGGVVQPGGSLRLSCEASGFTIGTYAMHWVRQFPGKGLDWVAVISFDGTTEYYTDAVKGRFTISRDNAKNTLYLQMNYLRGDDTAIYFCARDFTSSGETGSWTQVPDLWGQGTLVTVSS
VL: CEIVMTQSPATLSLSPGERATLSCRASQSVTKYLAWYQQKPGQAPRLLIYDVSYRAAGTPARFSGSGSGTDFTLTISSLEPEDFAVYYCHQRSSWPPVTFGGGTKVEIK
notes: as for B1
B6: NI-308.45C2 (antibody, V domains shown)
VH: QLQLQESGPGLVKPSQILSLTCAISGDSVFSNSAAWNWIRQSPSRGLEWLGRTYYRSKWDNDYAPSVKSRISINPDTSKNQFSLQLNSVTPEDTAVYYCAREVAYCGGDCYSVSFDYWGQGTLVTVSS
VL: not shown
notes: as for B1
B7: NI-308.15O7 (antibody, V domains shown)
VH: QVQLVESGGGVVQPGRSLRLSCAASGFTFSNHAMHWVRQAPGKGLEWVAVISYDGENTYYADSIEGRFTISRDNFKNTLFLQMYSLTADDTAMYFCARGGRRGHFTSYYLDYWGQGTLVTVSS
VL: CDIQMTQSPSSLSASVGDRVTITCRASQNIDKYLNWYQQIPGKAPKLLIYAASSLHSGVPSRFSGSGSGTDFSLTISSLQPEDFAIYYCQQSYSSFRTFGQGTKLEIK
B8: NI-308.6B11 (antibody, V domains shown)
VH: EVQLVQSGAEVKRPGASVKVSCKVSGYTLTELSMHWVRQAPGKGLEWMGGFDPEDGETVYAQKFQGRVTMTEDTSTDTAYMELSSLRSEDTALYHCATYGSSWHWNEGNEGSYYFDYWGQGTLVTVSS
VL: CDIQMTQSPSSLSASVGDRVTITCQASQDISIYLNWYQQKPGKAPKLLIYDASNLETGVPSRFSGSGSGTDFTFTISGLQPEDVARYYCQQYDDLPITFGQGTRLEIK
notes: as for B1

Target: T1, (GR)15: H-C(GR)15-OH
T1 construct: synthetic, not coupled to BSA; also called poly-GR DPR protein peptide
T1 peptide: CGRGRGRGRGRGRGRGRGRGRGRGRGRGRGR
Test: indirect ELISA, coated peptide
Protocol: (§1) In brief, dipeptide repeat proteins were synthesized and purified by Schafer-N(Copenhagen, Denmark): (GA)₁₅: H-CHHHHHH(GA)₁₅-OH; (GP)₁₅: H-C(GP)₁₅-OH; (GR)₁₅: H-C(GR)₁₅-OH; (PA)₁₅: H-C(PA)₁₅-OH; (PR)₁₅: H—C(PR)₁₅-OH. 96-well microplates (Corning Incorporated, Corning, USA) were coated with dipeptide repeat protein peptides at a concentration of either 5 μg/ml or 20 μg/ml in coating buffer (15 mM Na₂CO₃, 35 mM NaHCO₃, pH 9.42). Non-specific binding sites were blocked for 1 h at room temperature with PBS/0.1% Tween®-20 containing 2% BSA (Sigma-Aldrich, Buchs, Switzerland). Primary antibodies were diluted to the indicated concentrations and incubated for 1 h at room temperature, followed by incubation with a donkey anti-human IgG Fcγ-specific antibody conjugated with HRP (Jackson ImmunoResearch Laboratories, Inc., West Grove, USA). Binding was determined by measurement of HRP activity in a standard colorimetric assay. EC₅₀ values were estimated by non-linear regression using GraphPad Prism software (San Diego, USA). The binding specificity and EC₅₀ of human-derived antibodies for C9orf72 dipeptide repeat protein peptides (GA)₁₅, (GP)₁₅, (GR)₁₅, (PA)₁₅ and (PR)₁₅ were determined by indirect ELISA.

Row | Binder | binding result
1 | B1 | no binding
2 | B2 | no binding
3 | B3 | no binding
4 | B4 | no binding
5 | B5 | no binding
6 | B6 | no binding
7 | B7 | no binding

Target: T2, (PA)15: H-C(PA)15-OH
T2 construct: synthetic, not coupled to BSA; also called poly-PA DPR protein peptide
T2 peptide: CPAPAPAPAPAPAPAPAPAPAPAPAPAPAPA
Test: indirect ELISA, coated peptide
Protocol: as §1

Row | Binder | binding result
8 | B1 | no binding
9 | B2 | no binding
10 | B3 | no binding
11 | B4 | no binding
12 | B8 | no binding
13 | B6 | no binding
14 | B7 | no binding

Target: T3, (GP)15: H-C(GP)15-OH
T3 construct: synthetic, not coupled to BSA; also called poly-GP DPR protein peptide
T3 peptide: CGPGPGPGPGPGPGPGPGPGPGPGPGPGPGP
Test: indirect ELISA, coated peptide
Protocol: as §1

Row | Binder | binding result
15 | B3 | no binding
16 | B4 | no binding
17 | B5 | no binding
18 | B8 | no binding
19 | B6 | no binding
20 | B7 | no binding

Target: T4, (PR)15: H-C(PR)15-OH
T4 construct: synthetic, not coupled to BSA; also called poly-PR DPR protein peptide
T4 peptide: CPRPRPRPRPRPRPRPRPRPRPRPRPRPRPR
Test: indirect ELISA, coated peptide
Protocol: as §1

Row | Binder | binding result
21 | B1 | no binding
22 | B2 | no binding
23 | B3 | no binding
24 | B5 | no binding
25 | B6 | no binding
26 | B7 | no binding

Target: T5, GA20: H-(GA)20HHHHHH-NH2 (C-terminal amide)
T5 peptide: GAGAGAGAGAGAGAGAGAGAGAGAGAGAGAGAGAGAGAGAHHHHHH
Test: indirect ELISA, coated His-tagged peptide
Excerpt: In brief, dipeptide repeat proteins were synthesized and purified by Schafer-N (Copenhagen, Denmark): GA₂₀: H-(GA)₂₀HHHHHH-NH₂; GA₁₀: H-(GA)₁₀HHHHHH-NH₂; GA₆: H-(GA)₆HHHHHH-NH₂; GA₅: H-(GA)₅HHHHHH-NH₂; GA₄: H-(GA)₄HHHHHH-NH₂; GA₃: H-(GA)₃HHHHHH-NH₂; GA₂: H-(GA)₂HHHHHH-NH₂; GP₂₀: H-(GP)₂₀HHHHHH-NH₂; GP₁₀: H-(GP)₁₀HHHHHH-NH₂; GP₆: H-(GP)₆HHHHHH-NH₂; GP₅: H-(GP)₅HHHHHH-NH₂; GP₄: H-(GP)₄HHHHHH-NH₂; GP₃: H-(GP)₃HHHHHH-NH₂; GP₂: H-(GP)₂HHHHHH-NH₂. GR₂₀: H-(GR)₂₀HHHHHH-NH₂; GR₁₀: H-(GR)₁₀HHHHHH-NH₂; GR₆: H-(GR)₆HHHHHH-NH₂; GR₅: H-(GR)₅HHHHHH-NH₂; GR₄: H-(GR)₄HHHHHH-NH₂; GR₃: H-(GR)₃HHHHHH-NH₂; GR₂: H-(GR)₂HHHHHH-NH₂; PA₂₀: H-(PA)₂₀HHHHHH-NH₂; PA₁₀: H-(PA)₁₀HHHHHH-NH₂; PA₆: H-(PA)₆HHHHHH-NH₂; PA₅: H-(PA)₅HHHHHH-NH₂; PA₄: H-(PA)₄HHHHHH-NH₂; PA₃: H-(PA)₃HHHHHH-NH₂; PA₂: H-(PA)₂HHHHHH-NH₂; PR₂₀: H-(PR)₂₀HHHHHH-NH₂; PR₁₀: H-(PR)₁₀HHHHHH-NH₂; PR₆: H-(PR)₆HHHHHH-NH₂; PR₅: H-(PR)₅HHHHHH-NH₂; PR₄: H-(PR)₄HHHHHH-NH₂; PR₃: H-(PR)₃HHHHHH-NH₂; PR₂: H-(PR)₂HHHHHH-NH₂. 96-well microplates (Corning Incorporated, Corning, USA) were coated with dipeptide repeat protein peptides at a concentration of 50 μg/ml in coating buffer (15 mM Na₂CO₃, 35 mM NaHCO₃, pH 9.42). Non-specific binding sites were blocked for 1 h at room temperature with PBS/0.1% Tween®-20 containing 2% BSA (Sigma-Aldrich, Buchs, Switzerland). Primary antibodies were diluted to the indicated concentrations and incubated 1 h at room temperature, followed by incubation with a donkey anti-human IgG Fcγ-specific antibody conjugated with HRP (Jackson ImmunoResearch Laboratories, Inc., West Grove, USA). Binding was determined by measurement of HRP activity in a standard colorimetric assay. EC₅₀ values were estimated by non-linear regression using GraphPad Prism software (San Diego, USA).

Row | Binder | EC50 [nM]
27 | B2 | 18.2
28 | B3 | 1.1
29 | B8 | 33.6
30 | B6 | 9.6
31 | B7 | 0.54

What follows are binders tested against T6, transactive response DNA binding protein 43 (UniProt Q13148 1-414, limits assumed) (assay: indirect ELISA, coated protein).
T6 construct: also called TDP-43
Protocol: (§2) 96-well microplates (Corning) were coated with different target proteins at a concentration of 1-10 μg/ml in coating buffer (15 mM Na₂CO₃, 35 mM NaHCO₃, pH 9.42). Non-specific binding sites were blocked for 1 h at RT with PBS/0.1% Tween®-20 containing 2% BSA (Sigma-Aldrich, Buchs, Switzerland). […] Binding was determined using donkey anti-human IgG Fcγ-specific antibody conjugated with HRP (Jackson ImmunoResearch Laboratories, Inc., West Grove, USA) followed by measurement of HRP activity in a standard colorimetric assay. Signals for target protein were calculated in fold increase above median.

T6 sequence (Q13148 whole entry): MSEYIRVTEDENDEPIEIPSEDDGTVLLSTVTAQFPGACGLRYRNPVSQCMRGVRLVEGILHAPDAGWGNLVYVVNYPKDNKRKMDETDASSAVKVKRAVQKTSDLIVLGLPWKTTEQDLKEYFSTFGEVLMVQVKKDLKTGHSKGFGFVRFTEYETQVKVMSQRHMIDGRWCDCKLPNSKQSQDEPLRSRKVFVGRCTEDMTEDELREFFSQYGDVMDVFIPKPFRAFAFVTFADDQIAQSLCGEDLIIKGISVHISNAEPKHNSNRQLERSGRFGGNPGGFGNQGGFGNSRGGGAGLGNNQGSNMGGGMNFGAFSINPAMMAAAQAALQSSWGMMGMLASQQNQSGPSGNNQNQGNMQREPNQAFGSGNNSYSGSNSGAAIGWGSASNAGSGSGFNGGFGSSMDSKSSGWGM

Row | Binder | binding result
32 | B2 | no binding (tested: 20 nM)
33 | B3 | no binding (tested: 20 nM)
34 | B4 | no binding (tested: 20 nM)
35 | B8 | no binding (tested: 20 nM)
36 | B6 | no binding (tested: 20 nM)
37 | B7 | no binding (tested: 20 nM)

The binders below were run against T7, full-length amyloid precursor protein (UniProt P05067 18-770, limits assumed) (assay: indirect ELISA, coated protein).
T7 construct: also called flAPP
Protocol: as §2

T7 sequence (P05067 18-770 limits assumed): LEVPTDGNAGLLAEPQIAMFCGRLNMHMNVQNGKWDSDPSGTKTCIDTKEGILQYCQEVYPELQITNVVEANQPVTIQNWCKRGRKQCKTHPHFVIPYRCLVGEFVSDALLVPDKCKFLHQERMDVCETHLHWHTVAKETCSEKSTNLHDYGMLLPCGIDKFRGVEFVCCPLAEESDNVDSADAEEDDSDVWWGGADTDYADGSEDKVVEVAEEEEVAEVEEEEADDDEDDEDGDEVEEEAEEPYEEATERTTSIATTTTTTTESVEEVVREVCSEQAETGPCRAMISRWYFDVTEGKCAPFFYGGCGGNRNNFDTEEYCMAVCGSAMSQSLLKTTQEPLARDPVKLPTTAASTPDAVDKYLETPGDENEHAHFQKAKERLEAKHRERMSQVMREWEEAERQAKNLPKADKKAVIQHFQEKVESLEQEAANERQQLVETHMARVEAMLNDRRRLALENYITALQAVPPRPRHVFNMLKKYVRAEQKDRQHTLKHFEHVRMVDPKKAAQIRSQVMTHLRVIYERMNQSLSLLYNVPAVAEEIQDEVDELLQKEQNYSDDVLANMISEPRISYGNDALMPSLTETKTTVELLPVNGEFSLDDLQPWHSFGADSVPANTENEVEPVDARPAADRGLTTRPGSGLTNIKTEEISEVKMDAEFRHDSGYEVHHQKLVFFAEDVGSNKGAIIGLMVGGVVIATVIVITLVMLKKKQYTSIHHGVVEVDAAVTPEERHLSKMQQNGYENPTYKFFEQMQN

Row | Binder | binding result
38 | B2 | no binding (tested: 20 nM)
39 | B3 | no binding (tested: 20 nM)
40 | B4 | no binding (tested: 20 nM)
41 | B8 | no binding (tested: 20 nM)
42 | B6 | no binding (tested: 20 nM)
43 | B7 | no binding (tested: 20 nM)

What follows are binders tested against transthyrethin (UniProt P02766 21-147) (assay: indirect ELISA, coated protein).
Protocol: as §2

Row | Binder | binding result
44 | B2 | no binding (tested: 20 nM)
45 | B3 | no binding (tested: 20 nM)
46 | B4 | no binding (tested: 20 nM)
47 | B8 | no binding (tested: 20 nM)
48 | B6 | no binding (tested: 20 nM)
49 | B7 | no binding (tested: 20 nM)

What follows are binders tested against Tau (UniProt P10636-8 1-441, limits assumed) (assay: indirect ELISA, coated protein).
Protocol: as §2

Tau, sequence (P10636 other isoform, or with tags, fused parts or gaps limits assumed): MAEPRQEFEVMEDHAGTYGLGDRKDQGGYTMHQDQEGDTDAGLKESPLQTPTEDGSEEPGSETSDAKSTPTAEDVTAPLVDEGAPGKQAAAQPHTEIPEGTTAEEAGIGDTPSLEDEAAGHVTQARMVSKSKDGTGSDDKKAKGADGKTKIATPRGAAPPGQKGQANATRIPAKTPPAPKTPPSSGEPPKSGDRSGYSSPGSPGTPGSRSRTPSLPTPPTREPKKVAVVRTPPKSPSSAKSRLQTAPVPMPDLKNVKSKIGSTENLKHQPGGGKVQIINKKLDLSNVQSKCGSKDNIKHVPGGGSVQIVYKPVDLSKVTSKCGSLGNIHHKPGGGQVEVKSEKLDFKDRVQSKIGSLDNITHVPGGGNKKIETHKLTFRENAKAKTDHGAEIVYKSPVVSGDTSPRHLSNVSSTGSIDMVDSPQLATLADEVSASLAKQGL

Row | Binder | binding result
50 | B2 | no binding (tested: 20 nM)
51 | B3 | no binding (tested: 20 nM)
52 | B4 | no binding (tested: 20 nM)
53 | B8 | no binding (tested: 20 nM)
54 | B6 | no binding (tested: 20 nM)
55 | B7 | no binding (tested: 20 nM)
